This note sets out measurements from article PMC12004702, “Characterization of a rhodopsin-phosphodiesterase from Choanoeca flexa to be combined with rhodopsin-cyclases for bidirectional optogenetic cGMP control” (The Journal of Biological Chemistry, 2025).

Substrate in this data set: [H][C@@]12COP(=O)(O)O[C@@]1([H])[C@@H](O)[C@H](n1cnc3c(=O)[nH]c(N)nc31)O2
In words: HPLC initial-rate assay, Michaelis-Menten fit, membrane fraction. The format is biochemical, Choanoeca flexa. Particulars: 5 mM MgCl2, 20 mM Hepes, 100 mM NaCl, 5 mM DTT, 5% glycerol.

Where [1] appears, read: light-adapted state (470 nm, 30 μW/mm^2).

B1: CfRhPDE1 (Choanoeca flexa) (protein)
chain: MSKAMTMREEAALELKRKGKVKNVAIATTSEVQKQGFFMMAVWIATVSILWLFSNPEASEAVFEKHGQLRVMYGATSVAFAFATALDVLAYVNAVSDEKRVLSGVLAYVDGAACLSYAAMASLPLYFILDSHNGNPIWLMRYAEWLITCPTLLYWCGLATRGERGAVADIATGDAMLLAGGALSSILPGWPSYFVFMGSVAAFVYVMTHMWGLFSKAMQPDFSPAPPLPRTALNLMRWEIVLSWTCFPMIEYSRRYFGLDYQTGEALNSIIDYAAKVGLAMIMVNCNLEQINAIKVEQMQSAMSGMVKVMRKTNARVELDGMDDDVKGWLLNEYAGDDGEDEVKVSSKSKRNQKSINPEEISASALFSWDFCSLDKSEEDLVGICIRVFRELKMIEVFDLDESKLRRFILGVRSRYNKNPFHNWKHAVMVLHTCYLFITQVAAEFCTDLEVLALLFAALCHDCDHNGVNNAFHINSRSDLALLYNDQSVLENHHCYSGFDVLYDKGNNFLDVLSEGDFKRFRSLVIDCILGTDMAHHASKLGKLEEINRLGGFSNLAENDEQRAFVMVTLLHTSDLYNPIKPFHITKKWANRLQREFNQQVEVESQMGLPSLPFMKGQGELALAKGEVGFITFVIRPWYVQLTNAFPKIDFLMDNIDTNLDMWKSIVESHE
notes: full-length, N-terminal Venus tag kept, no other change from WT; codon-optimized; membranes of ND7/23 cells; modelled as dimer
Take B1: for the setting “darkness (dark-adapted state)”, the Michaelis-Menten constant (Km) (in general, the substrate concentration at which the rate is half of its maximum) was 4.4 ± 0.6 µM and the turnover number (kcat) (usually the maximal rate divided by the concentration of active sites) worked out at 2.0 ± 0.1 s⁻¹. In addition, under setting [1], the Michaelis-Menten constant (Km) turned out to be 1.9 ± 0.1 µM and the kcat came out at 4.7 ± 0.1 s⁻¹.
